Data published in patent US20150031601A1.

B1: antimicrobial peptide of SEQ ID NO: 2 (the parent antimicrobial peptide) (peptide)
peptide: GFCWYVCVYRNGVRVCYRRCN
B2: SEQ ID NO: 21 (peptide)
peptide: GFCWYVCAYRNGVRVCYRRCN
B3: SEQ ID NO: 316 (peptide)
peptide: GFCWRVCVYRNGVRSCHRRCN
B4: SEQ ID NO: 319 (peptide)
peptide: GFCWRACVYRNGVRACYRRCN
B5: SEQ ID NO: 320 (peptide)
peptide: GFCWRACVYRNGVRSCYRRCN
B6: SEQ ID NO: 327 (peptide)
peptide: GFCWRVCHYRNSVRVCYRRCN
B7: SEQ ID NO: 331 (peptide)
peptide: GFCWRVCSYRNGVRKCYRRCN
B8: SEQ ID NO: 335 (peptide)
peptide: GFCWRVCVRRNGVRVCHRRCN
B9: SEQ ID NO: 340 (peptide)
peptide: GFCWYACVYRNGKRACYRRCN
B10: SEQ ID NO: 343 (peptide)
peptide: GFCWYACAYRNGVRACYRRCN
B11: SEQ ID NO: 346 (peptide)
peptide: GFCWYTCVKRNGLRVCYRRCN
B12: SEQ ID NO: 359 (peptide)
peptide: RFCWNVCVYRNGVRVCHRHCN
B13: SEQ ID NO: 23 (peptide)
peptide: GFCWYVCHYRNGVRVCYRRCN
B14: SEQ ID NO: 362 (peptide)
peptide: GFCAHVCVKRNGARVCYRRCN
B15: SEQ ID NO: 363 (peptide)
peptide: GFCARVCAKRNGVRVCYRRCN
B16: SEQ ID NO: 377 (peptide)
peptide: GFCFRSCVRRNGVRVCYRRCN
B17: SEQ ID NO: 381 (peptide)
peptide: GFCFRVCVKRNGVRKCYRRCN
B18: SEQ ID NO: 386 (peptide)
peptide: GFCGRVCVYRNGKRACYRRCN
B19: SEQ ID NO: 390 (peptide)
peptide: GFCWHVCVYKNGKRSCYRRCN
B20: SEQ ID NO: 394 (peptide)
peptide: GFCWHVCARRNGARVCYRRCN
B21: SEQ ID NO: 396 (peptide)
peptide: GFCWHVCSKRNGLRVCYRRCN
B22: SEQ ID NO: 407 (peptide)
peptide: GFCWNACARRNGVRVCYRRCN
B23: SEQ ID NO: 411 (peptide)
peptide: GFCWNVCAYRNGKRACYRRCN
B24: SEQ ID NO: 24 (peptide)
peptide: GFCWYVCSYRNGVRVCYRRCN
B25: SEQ ID NO: 417 (peptide)
peptide: GFCWRACAYRNGKRVCYRRCN
B26: SEQ ID NO: 418 (peptide)
peptide: GFCWRACAYRNGVRACYRRCN
B27: SEQ ID NO: 425 (peptide)
peptide: GFCWRVCAYSNGKRVCYRRCN
B28: SEQ ID NO: 435 (peptide)
peptide: GFCWRVCASRNGLRVCYRRCN
B29: SEQ ID NO: 439 (peptide)
peptide: GFCWRVCHYSNGKRVCYRRCN
B30: SEQ ID NO: 450 (peptide)
peptide: GFCWYACAKRNGLRVCYRRCN
B31: SEQ ID NO: 453 (peptide)
peptide: GFCWYVCARRNGLRSCYRRCN
B32: SEQ ID NO: 454 (peptide)
peptide: GFCWYVCVKRNGARKCHRRCN
B33: SEQ ID NO: 493 (peptide)
peptide: GFCGRVCVYKNGKRACYRRCN
B34: SEQ ID NO: 504 (peptide)
peptide: GFCWKVCARRNGARSCYRRCN
B35: SEQ ID NO: 25 (peptide)
peptide: GFCWYVCYYRNGVRVCYRRCN
B36: SEQ ID NO: 509 (peptide)
peptide: GFCWRVCVYSNGKRSCHRRCN
B37: SEQ ID NO: 523 (peptide)
peptide: GFCWRVCAYKNGKRSCYRRCN
B38: SEQ ID NO: 28 (peptide)
peptide: GFCWYVCVRRNGVRVCYRRCN
B39: SEQ ID NO: 29 (peptide)
peptide: GFCWYVCVYRNGARVCYRRCN
B40: SEQ ID NO: 30 (peptide)
peptide: GFCWYVCVYRNGGRVCYRRCN
B41: SEQ ID NO: 33 (peptide)
peptide: GFCWYVCVYRNGPRVCYRRCN
B42: SEQ ID NO: 36 (peptide)
peptide: GFCWYVCVYRNGSRVCYRRCN
B43: SEQ ID NO: 38 (peptide)
peptide: GFCWYVCVYRNGVRGCYRRCN
B44: SEQ ID NO: 3 (peptide)
peptide: GACWYVCVYRNGVRVCYRRCN
B45: SEQ ID NO: 39 (peptide)
peptide: GFCWYVCVYRNGVRHCYRRCN
B46: SEQ ID NO: 41 (peptide)
peptide: GFCWYVCVYRNGVRNCYRRCN
B47: SEQ ID NO: 42 (peptide)
peptide: GFCWYVCVYRNGVRQCYRRCN
B48: SEQ ID NO: 44 (peptide)
peptide: GFCWYVCVYRNGVRSCYRRCN
B49: SEQ ID NO: 45 (peptide)
peptide: GFCWYVCVYRNGVRTCYRRCN
B50: SEQ ID NO: 46 (peptide)
peptide: GFCWYVCVYRNGVRVCHRRCN
B51: SEQ ID NO: 47 (peptide)
peptide: GFCWYVCVYRNGVRVCKRRCN
B52: SEQ ID NO: 48 (peptide)
peptide: GFCWYVCVYRNGVRVCNRRCN
B53: SEQ ID NO: 53 (peptide)
peptide: GFCWYVCVYRNGVRVCYRRCS
B54: SEQ ID NO: 54 (peptide)
peptide: GFCWYVCVYRNGVRVCYRRCT
B55: SEQ ID NO: 4 (peptide)
peptide: GFCAYVCVYRNGVRVCYRRCN
B56: SEQ ID NO: 56 (peptide)
peptide: GFCFYVCVYRNGVRVCRRRCN
B57: SEQ ID NO: 60 (peptide)
peptide: GFCGHVCVYRNGVRVCYRRCN
B58: SEQ ID NO: 61 (peptide)
peptide: GFCGRVCVYRNGVRVCYRRCN
B59: SEQ ID NO: 68 (peptide)
peptide: GFCWKVCVYRNGVRVCSRRCN
B60: NZ17074 (the antimicrobial peptide of SEQ ID NO: 70) (peptide)
peptide: GFCWNVCVYRNGVRVCHRRCN
B61: SEQ ID NO: 72 (peptide)
peptide: GFCWRACVYRNGVRVCYRRCN
B62: SEQ ID NO: 74 (peptide)
peptide: GFCWRVCHYRNGVRVCYRRCN
B63: SEQ ID NO: 76 (peptide)
peptide: GFCWRVCVYRNGVRVCHRRCN
B64: SEQ ID NO: 80 (peptide)
peptide: GFCWYACVYRNGKRVCYRRCN
B65: SEQ ID NO: 87 (peptide)
peptide: GFCWYVCVKRNGVRSCYRRCN
B66: SEQ ID NO: 7 (peptide)
peptide: GFCSYVCVYRNGVRVCYRRCN
B67: SEQ ID NO: 89 (peptide)
peptide: GFCWYVCVYKNGVRVCHRRCN

Biological target: serum proteins
Test: 90% serum, 30 kDa ultrafiltration, HPLC

Row | Binder | Protein binding (%)
1 | B1 | 99.5
2 | B2 | 98.5
3 | B3 | 90
4 | B4 | 40
5 | B5 | 88
6 | B6 | 98
7 | B7 | 95
8 | B8 | 95
9 | B9 | 98
10 | B10 | 74
11 | B11 | 86
12 | B12 | 80
13 | B13 | 98
14 | B14 | 76
15 | B15 | 80
16 | B16 | 65
17 | B17 | 98
18 | B18 | 81
19 | B19 | 87
20 | B20 | 80
21 | B21 | 92
22 | B22 | 88
23 | B23 | 86

Row | Binder | Protein binding (%)
24 | B24 | 85
25 | B25 | 95
26 | B26 | 92
27 | B27 | 69
28 | B28 | 85
29 | B29 | 92
30 | B30 | 98
31 | B31 | 92
32 | B32 | 90
33 | B33 | 77
34 | B34 | 95
35 | B35 | 98
36 | B36 | 87
37 | B37 | 90
38 | B38 | 92
39 | B39 | 99
40 | B40 | 99
41 | B41 | 99
42 | B42 | 60
43 | B43 | 93
44 | B44 | 86
45 | B45 | 98
46 | B46 | 97

Row | Binder | Protein binding (%)
47 | B47 | 96
48 | B48 | 85
49 | B49 | 98
50 | B50 | 88
51 | B51 | 89
52 | B52 | 68
53 | B53 | 99
54 | B54 | 99
55 | B55 | 89
56 | B56 | 94
57 | B57 | 64
58 | B58 | 72
59 | B59 | 87
60 | B60 | 79
61 | B61 | 97
62 | B62 | 99
63 | B63 | 92
64 | B64 | 96
65 | B65 | 93
66 | B66 | 68
67 | B67 | 90
